Laboratory results: patent publication US20110020379A1
Positions of bridges follow the written chain, without caps; N, C: chain ends. No end group written: not given here.

B1: phagemid CS1-31p (peptide)
peptide: CSFFYSLCYCWCS
modifications: disulfide (positions not given here); also: disulfide cyclised, pairing of the four Cys not given here

Tests used:
[1] = biological target: bovine serum albumin (bovine) (UniProt P02769); assay: phage ELISA, 10^9 phagemid per well, BSA-only wells
[2] = biological target: unrelated control antibody; assay: phage ELISA, 10^9 phagemid per well, wells coated with control mAb
[3] = biological target: unrelated control antibody; assay: phage ELISA, 10^10 phagemid per well, wells coated with control mAb
[4] = biological target: bovine serum albumin (bovine) (UniProt P02769); assay: phage ELISA, 10^8 phagemid per well, BSA-only wells
[5] = biological target: unrelated control antibody; assay: phage ELISA, 10^8 phagemid per well, wells coated with control mAb
[6] = biological target: bovine serum albumin (bovine) (UniProt P02769); assay: phage ELISA, 10^10 phagemid per well, BSA-only wells

Sequence of bovine serum albumin (bovine) (P02769 25-607 limits assumed): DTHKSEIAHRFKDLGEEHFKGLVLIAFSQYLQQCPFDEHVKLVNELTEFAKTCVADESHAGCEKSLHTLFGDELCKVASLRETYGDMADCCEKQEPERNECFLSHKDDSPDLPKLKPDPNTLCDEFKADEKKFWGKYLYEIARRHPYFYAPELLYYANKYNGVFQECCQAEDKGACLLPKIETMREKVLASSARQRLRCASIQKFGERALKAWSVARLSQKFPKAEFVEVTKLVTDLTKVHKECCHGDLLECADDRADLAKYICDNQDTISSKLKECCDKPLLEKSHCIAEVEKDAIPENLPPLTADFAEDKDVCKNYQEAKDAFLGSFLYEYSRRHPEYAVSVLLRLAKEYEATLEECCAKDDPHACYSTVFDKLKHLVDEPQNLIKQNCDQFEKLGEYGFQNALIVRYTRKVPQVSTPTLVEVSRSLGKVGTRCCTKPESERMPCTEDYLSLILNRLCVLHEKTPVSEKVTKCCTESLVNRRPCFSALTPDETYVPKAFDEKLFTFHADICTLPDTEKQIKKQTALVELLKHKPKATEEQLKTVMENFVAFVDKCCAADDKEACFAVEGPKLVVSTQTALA

| Binder | ELISA (absorbance units) (absorbance units) [1] | ELISA (absorbance units) (absorbance units) [2] | ELISA (absorbance units) (absorbance units) [3] | ELISA (absorbance units) (absorbance units) [4] | ELISA (absorbance units) (absorbance units) [5] | ELISA (absorbance units) (absorbance units) [6] |
| --- | --- | --- | --- | --- | --- | --- |
| CSFRYQWDMFRCS (disulfide 1-12 (inferred)) [phagemid CS1-11p] | 0.278 | 0.258 | 0.242 | 0.268 | 0.252 | 0.304 |
| CSFRYLWDQDRCS (disulfide 1-12 (inferred)) [phagemid CS1-6p] | 0.27 | 0.172 | 0.203 | 0.254 | 0.173 | 0.275 |
| CSLFYLWDQDRCS (disulfide 1-12 (inferred)) [phagemid CS1-2p] | 0.277 | 0.199 | 0.228 | 0.264 | 0.188 | 0.327 |
| CSGLYPWDMFRCS (disulfide 1-12 (inferred)) [phagemid CS1-9p] | 0.22 | 0.204 | 0.213 | 0.216 | 0.209 | 0.221 |
| CSGLYPWDYFMCS (disulfide 1-12 (inferred)) [phagemid CS1-29p] | 0.147 | 0.136 | 0.148 | 0.127 | 0.125 | 0.141 |
| B1 | 0.114 | 0.118 | 0.125 | 0.109 | 0.116 | 0.112 |
